Patent US20260242478A1 (published 2026)
Where no end group is shown, it is not given here.

Columns and labels:
[1] = target: T1, Anti-CD28 scFv (VH - linker 1 - VL) (biotinylated (site not stated)); assay: phage binding ELISA; biotinylated anti-CD28 scFv on neutravidin plate, clonal phage supernatant, anti-M13 HRP detection
[2] = target: T1, Anti-CD28 scFv (VH - linker 1 - VL); assay: phage binding ELISA on captured anti-CD28 scFv; wells pre-incubated with soluble CD28 protein (competitor)
Description: (§1) Clonal phage were harvested as crude supernatants and screened via standard enzyme linked immunosorbent assays (ELISAs). […] Prior to the addition of clonal phage, wells were incubated with blocking buffer and CD28 soluble protein or blocking buffer alone. Without washing or aspirating, clonal phage supernatants were then added to the wells and incubated for a short time. Wells were then washed followed by detection of bound phage using a horse radish peroxidase conjugated anti-M13 antibody.

[3] = target: T2, anti-CD28 scFv (VH - linker 1 - VL) (biotinylated (site not stated)); assay: phage ELISA; biotinylated anti-CD28 scFv on neutravidin plate, clonal phage supernatant, anti-M13 HRP detection;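 also: before phage addition, wells were pre-incubated with blocking buffer plus soluble CD28 protein, or blocking buffer only, with no wash in between, signal reflects phage remaining bound after washing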
[4] = target: T2, anti-CD28 scFv (VH - linker 1 - VL); assay: phage ELISA as above, wells pre-incubated with soluble CD28 as competitor
Description: as §1

[5] = target: T3, anti-CD28 scFv (VH - linker 1 - VL) (biotinylated (site not given)); assay: phage ELISA as above; wells pre-incubated with soluble CD28 as competitor;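 also: crude clonal phage supernatants tested, with bound phage detected by HRP-conjugated anti-M13 antibody, and reference wells given blocking buffer without CD28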
T3 construct: Biotinylated scFv captured on neutravidin coated plates in the panning ELISA

[6] = target: Anti-CD28 scFv (VH - linker 1 - VL) (biotinylated (site not given)); assay: phage binding ELISA on anti-CD28 scFv plate; wells pre-incubated with soluble CD28 as competitor;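 also: clonal phage supernatants tested, bound phage read out with an HRP-linked anti-M13 antibody, reference wells received blocking buffer lacking CD28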
Chain of Anti-CD28 scFv (VH - linker 1 - VL) (biotinylated (site not given)) (scFv, as listed by the source): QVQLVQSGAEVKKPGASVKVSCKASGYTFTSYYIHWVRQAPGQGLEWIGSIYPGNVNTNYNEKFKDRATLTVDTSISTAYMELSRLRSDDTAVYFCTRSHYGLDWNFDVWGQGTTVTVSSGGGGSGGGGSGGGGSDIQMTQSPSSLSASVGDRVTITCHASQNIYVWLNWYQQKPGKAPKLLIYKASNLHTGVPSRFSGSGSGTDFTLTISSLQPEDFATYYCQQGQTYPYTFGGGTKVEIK

T2 sequence (scFv, as listed by the source): as above
T3 sequence (scFv, as listed by the source): as above
T1 sequence (scFv, as listed by the source): as above

B1: Phage-60 clonal phage peptide (peptide, not shown: large carriers)
peptide: MDWCPRTLWYLCFN
CD28 scFv signal [1]: 2.59
CD28 scFv signal in presence of CD28 [2]: 1.2

B2: Phage-172 (peptide)
peptide: MDWCPPYLWYECFA
CD28 scFv signal [3]: 0.692
CD28 scFv signal in presence of CD28 [4]: 0.094

B3: Phage-196 (peptide)
peptide: MDWCPRYMWYQCFS
CD28 scFv signal [3]: 2.36
CD28 scFv signal in presence of CD28 [4]: 0.357

B4: Phage-59 clonal phage peptide (peptide, not shown: large carriers)
peptide: MDWCPRDSWHLCFA
CD28 scFv signal [1]: 2.45
CD28 scFv signal in presence of CD28 [2]: 0.147

B5: Phage-176 (peptide)
peptide: MDWCPSDLWHECFH
CD28 scFv signal [3]: 0.629
CD28 scFv signal in presence of CD28 [4]: 0.164

B6: Phage-184 (peptide)
peptide: MHWCPINLWNECFS
CD28 scFv signal [3]: 0.316
CD28 scFv signal in presence of CD28 [4]: 0.098

B7: Phage-194 (peptide)
peptide: MDWCPSDMWHECYA
CD28 scFv signal [3]: 2.47
CD28 scFv signal in presence of CD28 [4]: 0.2

B8: Phage-195 (peptide)
peptide: MDWCPKHMWFMCFN
CD28 scFv signal [3]: 2.4
CD28 scFv signal in presence of CD28 [4]: 0.372

B9: Phage-183 (peptide)
peptide: IDWCPRDLWALCFN
CD28 scFv signal [3]: 0.37
CD28 scFv signal in presence of CD28 [4]: 0.129

B10: Phage-178 (peptide)
peptide: LDWCPRDLWHVCFF
CD28 scFv signal [3]: 0.61
CD28 scFv signal in presence of CD28 [4]: 0.105

B11: Phage-182 (peptide)
peptide: MHWCPRSLWNECYF
CD28 scFv signal [3]: 0.456
CD28 scFv signal in presence of CD28 [4]: 0.115

B12: Phage-191 (peptide)
peptide: MDWCPRDMWYECFN
CD28 scFv signal [3]: 2.56
CD28 scFv signal in presence of CD28 [4]: 0.235

B13: Phage-177 (peptide)
peptide: MDWCPVSLWDHCFN
CD28 scFv signal [3]: 0.616
CD28 scFv signal in presence of CD28 [4]: 0.1

B14: Phage-190 (peptide)
peptide: MDWCPRDMWAECFF
CD28 scFv signal [3]: 2.69
CD28 scFv signal in presence of CD28 [4]: 2.26

B15: Phage-61 clonal phage peptide (peptide, not shown: large carriers)
peptide: MVSCPTTMWNRCFN
CD28 scFv signal [1]: 1.33
CD28 scFv signal in presence of CD28 [2]: 0.072

B16: Phage-65 clonal phage peptide (peptide, not shown: large carriers)
peptide: MDWCPMYLWNECFN
CD28 scFv signal [1]: 2.61
CD28 scFv signal in presence of CD28 [2]: 0.471

B17: Phage-105 (peptide)
peptide: MDWCPRYLWNVCFN
CD28 scFv signal in presence of CD28 [5]: 0.57

B18: Phage-265 (peptide)
peptide: MDWCPRFMWDLCFA
modifications: cysteine pairing not given here; also: displayed on phage as pIII fusion, fusion limits and linker not given here
notes: Clonal phage of the Peptide-9 library, tested as crude phage supernatant; not shown: pIII of the bacteriophage
CD28 scFv signal in presence of CD28 [6]: 0.725

B19: Phage-188 (peptide)
peptide: MDWCPSYLWDQCFF
CD28 scFv signal [3]: 0.083
CD28 scFv signal in presence of CD28 [4]: 0.079

B20: Phage-175 (peptide)
peptide: MDWCPAYLWAECFS
CD28 scFv signal [3]: 0.64
CD28 scFv signal in presence of CD28 [4]: 0.12

B21: Phage-173 (peptide)
peptide: MDWCPMNLWSECFN
CD28 scFv signal [3]: 0.67
CD28 scFv signal in presence of CD28 [4]: 0.124

B22: Phage-102 (peptide)
peptide: MDWCPRYLWAECFY
CD28 scFv signal in presence of CD28 [5]: 0.354

B23: Phage-181 (peptide)
peptide: MYWCPRDLWDVCFN
CD28 scFv signal [3]: 0.512
CD28 scFv signal in presence of CD28 [4]: 0.102

B24: Phage-108 (peptide)
peptide: MDWCPRALWHECFT
CD28 scFv signal in presence of CD28 [5]: 0.191

B25: Phage-193 (peptide)
peptide: MDWCPMDMWVNCFN
CD28 scFv signal [3]: 2.52
CD28 scFv signal in presence of CD28 [4]: 0.277

B26: Phage-62 clonal phage peptide (peptide, not shown: large carriers)
peptide: MDWCPSYLWNECFF
CD28 scFv signal [1]: 2
CD28 scFv signal in presence of CD28 [2]: 0.133

B27: Phage-104 (peptide)
peptide: MDWCPRDLWDLCFF
CD28 scFv signal in presence of CD28 [5]: 0.156

B28: Phage-278 (peptide)
peptide: MDWCPRSIWYLCFN
modifications: cysteine pairing not given here; also: displayed on phage as fusion to pIII, fusion limits and linker not given here
notes: as for B18
CD28 scFv signal in presence of CD28 [6]: 1.34

B29: Phage-189 (peptide)
peptide: VDWCPRYLWHVCYN
CD28 scFv signal [3]: 0.065
CD28 scFv signal in presence of CD28 [4]: 0.061

B30: Phage-179 (peptide)
peptide: MDWCPWILWNECFN
CD28 scFv signal [3]: 0.581
CD28 scFv signal in presence of CD28 [4]: 0.137

B31: Phage-186 (peptide)
peptide: QDWCPTYLWHHCFN
CD28 scFv signal [3]: 0.123
CD28 scFv signal in presence of CD28 [4]: 0.122

B32: Phage-103 (peptide)
peptide: MDWCPRDLWHECFN
CD28 scFv signal in presence of CD28 [5]: 0.218

B33: Phage-107 (peptide)
peptide: MDWCPRDLWAECFN
CD28 scFv signal in presence of CD28 [5]: 0.207

B34: Phage-106 (peptide)
peptide: MDWCPIYLWDECFN
CD28 scFv signal in presence of CD28 [5]: 0.215

B35: Phage-180 (peptide)
peptide: MHWCPRYLWDECFN
CD28 scFv signal [3]: 0.55
CD28 scFv signal in presence of CD28 [4]: 0.127

B36: Phage-174 (peptide)
peptide: MDWCPKHLWNECFN
CD28 scFv signal [3]: 0.663
CD28 scFv signal in presence of CD28 [4]: 0.105

B37: Phage-187 (peptide)
peptide: IGKLTLCLNADLVI
CD28 scFv signal [3]: 0.116
CD28 scFv signal in presence of CD28 [4]: 0.1

B38: Phage-192 (peptide)
peptide: DVWCPKYMWSLCFN
CD28 scFv signal [3]: 2.53
CD28 scFv signal in presence of CD28 [4]: 0.418

B39: Phage-101 (peptide)
peptide: MDWCPRSLWHYCFA
CD28 scFv signal in presence of CD28 [5]: 0.338

B40: Phage-58 clonal phage peptide (peptide, not shown: large carriers)
peptide: MHWCPIDRWADCFN
CD28 scFv signal [1]: 0.287
CD28 scFv signal in presence of CD28 [2]: 0.077
